In the data set the target is T1, CD19 (Homo sapiens, UniProt P15391).
T1 construct: endogenous in cells; host or cells: RAJI cells in vitro
T1 sequence (P15391 20-556): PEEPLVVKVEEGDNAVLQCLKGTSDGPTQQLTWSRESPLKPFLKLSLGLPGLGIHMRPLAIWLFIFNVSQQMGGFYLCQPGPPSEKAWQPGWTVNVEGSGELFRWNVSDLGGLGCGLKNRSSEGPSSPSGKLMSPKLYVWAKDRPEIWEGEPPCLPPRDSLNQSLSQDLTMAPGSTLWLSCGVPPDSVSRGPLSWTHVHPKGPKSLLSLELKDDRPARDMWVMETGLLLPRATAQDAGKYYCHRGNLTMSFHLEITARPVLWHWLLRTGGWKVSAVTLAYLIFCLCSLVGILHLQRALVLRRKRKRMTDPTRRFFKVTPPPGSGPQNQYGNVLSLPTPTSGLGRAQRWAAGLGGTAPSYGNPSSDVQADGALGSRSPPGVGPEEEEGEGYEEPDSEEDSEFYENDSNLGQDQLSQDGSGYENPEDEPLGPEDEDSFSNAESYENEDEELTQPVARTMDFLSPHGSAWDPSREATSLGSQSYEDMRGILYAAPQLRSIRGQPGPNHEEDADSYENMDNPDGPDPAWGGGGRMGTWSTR
Nature of the data set: Jurkat-NFAT-EGFP (J-N-G) reporter: EGFP induction upon co-culture with RAJI cells. It is filed as cell-based. The following applies: co-culture with CD19+ve RAJI cells, compared to wild-type EF1α promoter. The source says:
Jurkat cell line (clone E6-1) engineered with a NFAT-dependent EGFP (or GFP) reporter gene was a gift from Dr. Arthur Weiss at University of California San Francisco and have been described to study CAR-signaling ((Wu, C Y et al., Science 350:293-302, 2015). Jurkat cells were maintained in RPMI-1640 medium supplemented with 10% FBS, penicillin and streptomycin.
Use of strong viral promoters in adoptive cellular therapy applications carries the risk of activation of downstream oncogenes and development of cancer. As such, human Elongation Factor 1α (EF1α) promoter is frequently used in adoptive cellular therapy applications as it provides strong expression and is human in origin. A limitation of EF1α promoter, however, is its relatively large size. Although a mini-EF1α promoter has been described, it is much weaker as compared to the EF1α promoter. To determine whether an internal deletion in the EF1α promoter would allow shortening of its length while preserving its promoter strength, a SacII fragment was deleted from the EF1α promoter. […] The vectors also co-expressed EGFP and blasticidin resistance gene via 2A linkers. Lentiviruses were generated in 293FT cells and used to infect J-N-G cells.

B1: EF1α-D-SacII promoter: EF1α promoter from which an internal SacII fragment was deleted (nucleic acid)
DNA: GTGAGGCTCCGGTGCCCGTCAGTGGGCAGAGCGCACATCGCCCACAGTCCCCGAGAAGTTGGGGGGAGGGGTCGGCAATTGAACCGGTGCCTAGAGAAGGTGGCGCGGGGTAAACTGGGAAAGTGATGTCGTGTACTGGCTCCGCCTTTTTCCCGAGGGTGGGGGAGAACCGTATATAAGTGCAGTAGTCGCCGTGAACGTTCTTTTTCGCAACGGGTTTGCCGCCAGAACACAGGTAAGTGCCGTGTGTGGTTCCCGCGGGCGGCGACGGGGCCCGTGCGTCCCAGCGCACATGTTCGGCGAGGCGGGGCCTGCGAGCGCGGCCACCGAGAATCGGACGGGGGTAGTCTCAAGCTGGCCGGCCTGCTCTGGTGCCTGGCCTCGCGCCGCCGTGTATCGCCCCGCCCTGGGCGGCAAGGCTGGCCCGGTCGGCACCAGTTGCGTGAGCGGAAAGATGGCCGCTTCCCGGCCCTGCTGCAGGGAGCTCAAAATGGAGGACGCGGCGCTCGGGAGAGCGGGCGGGTGAGTCACCCACACAAAGGAAAAGGGCCTTTCCGTCCTCAGCCGTCGCTTCATGTGACTCCACGGAGTACCGGGCGCCGTCCAGGCACCTCGATTAGTTCTCGACCTTTTGGAGTACGTCGTCTTTAGGTTGGGGGGAGGGGTTTTATGCGATGGAGTTTCCCCACACTGAGTGGGTGGAGACTGAAGTTAGGCCAGCTTGGCACTTGATGTAATTCTCCTTGGAATTTGCCCTTTTTGAGTTTGGATCTTGGTTCATTCTCAAGCCTCAGACAGTGGTTCAAAGTTTTTTTCTTCCATTTCAGGTGTCGTGA
For B1, the “induction of EGFP expression by FMC63-BBz CAR” value was “Near equivalent inducton of EGFP expression”.

Source of the values: patent US12570711B2, “Platforms for co-stimulation, novel car designs and other enhancements for adoptive cellular therapy” (Angeles Therapeutics, Inc., priority 2017, dated 2026).
